Data published in patent publication US20240000957A1 (published 2024).
*1 amine or outer side, *2 acyl side, *3 side chain or, on linkers, in order; H or OH if unused. Bridges are numbered along the chain shown (N, C = ends). Where no end group is shown, it is not given here. [ ]: non-standard residue; d: D form. TATA = O=C(CC[*:1])N1CN(C(=O)CC[*:2])CN(C(=O)CC[*:3])C1; 2Nal = N[C@@H](Cc1ccc2ccccc2c1)C(=O)O

B1: Compound 79 (peptide)
peptide: ACPLVNPLCLHPG[2Nal]TCLHG
modifications: linker 2-9-16 via TATA; not fully specified (C-terminus); printed as ACPLVNPLCLHPG(2Nal)TCLHG
B2: Compound 74 (peptide)
peptide: Ac-CPLVNPLCLHPGWTCLHG
modifications: linker 1-8-15 via TATA; not fully specified (C-terminus); printed as Ac-CPLVNPLCLHPGWTCLHG
B3: BCY6035 (peptide)
peptide: Ac-CPLVNPLCLHPGWTCLHG
modifications: linker 1-8-15 via TATA; not fully specified (C-terminus); also: DM1-SS- conjugated, site not given here
notes: Bicycle drug conjugate (BDC)
B4: BCY6038 (peptide)
peptide: Ac-CPLVNPLCLHPGWTCLHG
modifications: linker 1-8-15 via TATA; not fully specified (C-terminus); also: TrpCit-MMAE conjugated, site not given here
notes: Bicycle drug conjugate (BDC)
B5: BCY6036 (peptide)
peptide: Ac-CPLVNPLCLHPGWTCLHG
modifications: linker 1-8-15 via TATA; not fully specified (C-terminus); also: DM1-SS-(Me)- conjugated, site not given here
notes: Bicycle drug conjugate (BDC)
B6: BCY6055 (peptide)
peptide: AXDCPLVNPLCLHPGWTC
modifications: not fully specified; as BCY6014 (N-terminal (β-Ala)-Sar10; HArg; TATA scaffold on the 3 Cys) + DM1-SS-(Me2)-
notes: Bicycle drug conjugate (BDC)
B7: BCY6037 (peptide)
peptide: Ac-CPLVNPLCLHPGWTCLHG
modifications: linker 1-8-15 via TATA; not fully specified (C-terminus); also: ValCit-MMAE conjugated, site not given here
notes: Bicycle drug conjugate (BDC)

What follows are binders tested against T1, Human EphA2 (Ecto), C-terminal polyHis (Human, UniProt P29317 24-537) (assay: FP competition vs Reference Compound C).
T1 construct: extracellular domain; R&D systems 3035-A2 or in-house
T1 sequence (P29317 24-537): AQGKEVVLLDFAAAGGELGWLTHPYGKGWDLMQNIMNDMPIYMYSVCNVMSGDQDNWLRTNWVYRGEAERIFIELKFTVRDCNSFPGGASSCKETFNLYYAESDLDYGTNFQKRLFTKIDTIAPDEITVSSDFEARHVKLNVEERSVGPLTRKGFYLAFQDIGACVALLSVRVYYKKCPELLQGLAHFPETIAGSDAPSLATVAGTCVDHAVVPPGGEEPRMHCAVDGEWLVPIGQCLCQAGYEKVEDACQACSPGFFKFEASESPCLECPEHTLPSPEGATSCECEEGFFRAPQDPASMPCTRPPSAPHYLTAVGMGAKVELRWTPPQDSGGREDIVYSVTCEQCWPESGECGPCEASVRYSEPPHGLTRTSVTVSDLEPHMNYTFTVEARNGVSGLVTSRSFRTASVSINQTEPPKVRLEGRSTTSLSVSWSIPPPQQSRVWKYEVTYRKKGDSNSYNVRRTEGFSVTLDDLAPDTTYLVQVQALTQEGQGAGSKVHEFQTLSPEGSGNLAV

For ACVPDRRCAFQDVCDHE (linker 2-8-14 via TATA; not fully specified (C-terminus)) [Compound 27], which Ki is on record?
Its Ki is 159 nM.

With ACGFMGLEPCVTYCA (linker 2-10-14 via TATA; not fully specified (C-terminus)) [Compound 43] as the binder, how does the Ki read?
Its Ki is 234 nM.

ACGFMGLEPCELFCMPK (linker 2-10-14 via TATA; not fully specified (C-terminus)) [Compound 47] was tested. Which Ki did it give?
The Ki was 185 nM.

For ACPLVNPLCLMTGWSCA (linker 2-9-16 via TATA; not fully specified (C-terminus)) [Compound 61], which Ki is on record?
Its Ki is 242 nM.

Which Ki does the source give for RPACPLVNPLCLHPGWTCA (linker 4-11-18 via TATA; not fully specified (C-terminus)) [Compound 70] here?
Its Ki is 10.1 nM.

With RPPCPLVNPLCLHPGWTCA (linker 4-11-18 via TATA; not fully specified (C-terminus)) [Compound 71] as the binder, how does the Ki read?
Its Ki is 11.1 nM.

Which Ki does the source give for ACQSCWAYPDTYCA (linker 2-5-13 via TATA; not fully specified (C-terminus)) [Compound 39] here?
Its Ki is 321 nM.

How did the Ki turn out when B1 was run?
The Ki was 162 nM.

Which Ki does the source give for ACPLVNPLCLLDGWTCA (linker 2-9-16 via TATA; not fully specified (C-terminus)) [Compound 58] here?
Its Ki is 38.4 nM.

For ACPLVNPLCLTSGWKCA (linker 2-9-16 via TATA; not fully specified (C-terminus)) [Compound 52], which Ki is on record?
The Ki was 115 nM.

For ACGFMGLEPCELFCA (linker 2-10-14 via TATA; not fully specified (C-terminus)) [Compound 46], which Ki is on record?
Its Ki is 81.7 nM.

How did the Ki turn out when ACGFMGLEPCEMVCA (linker 2-10-14 via TATA; not fully specified (C-terminus)) [Compound 42] was run?
Its Ki is 320 nM.

Which Ki does the source give for ACGFMGLEPCEMYCA (linker 2-10-14 via TATA; not fully specified (C-terminus)) [Compound 50] here?
The Ki was 140 nM.

Which Ki does the source give for ACGFMGLEPCETFCA (linker 2-10-14 via TATA; not fully specified (C-terminus)) [Compound 40] here?
Its Ki is 188 nM.

With ACGFMGLEPCELVCA (linker 2-10-14 via TATA; not fully specified (C-terminus)) [Compound 44] as the binder, how does the Ki read?
Its Ki is 127 nM.

Which Ki does the source give for ACPLVNPLCNLPGWTCA (linker 2-9-16 via TATA; not fully specified (C-terminus)) [Compound 56] here?
Its Ki is 184 nM.

For ACVPDRRCAFENVCVDH (linker 2-8-14 via TATA; not fully specified (C-terminus)) [Compound 25], which Ki is on record?
The Ki was 97.3 nM.

For SRPCVIDSRCAYMNVCA (linker 4-10-16 via TATA) [Compound 19], which Ki is on record?
Its Ki is 94.8 nM.

ACVPDRRCAFMNVCEDR (linker 2-8-14 via TATA; not fully specified (C-terminus)) [Compound 26] was tested. Which Ki did it give?
The Ki was 39 nM.

How did the Ki turn out when GSGCKPDSRCAYMNVCA (linker 4-10-16 via TATA; not fully specified (C-terminus)) [Compound 22] was run?
The Ki was 63.2 nM.

For HSGCRPDPRCAYMNVCA (linker 4-10-16 via TATA) [Compound 21], which Ki is on record?
Its Ki is 62.1 nM.

With B2 as the binder, how does the Ki read?
Its Ki is 1.76 nM.

How did the Ki turn out when ACTKPTGFCAYPDTICA (linker 2-9-16 via TATA; not fully specified (C-terminus)) [Compound 33] was run?
The Ki was 268 nM.

Which Ki does the source give for ACPLVNPLCLMPGWGCA (linker 2-9-16 via TATA; not fully specified (C-terminus)) [Compound 59] here?
Its Ki is 114 nM.

How did the Ki turn out when ACPLVNPLCLYGSWKCA (linker 2-9-16 via TATA; not fully specified (C-terminus)) [Compound 63] was run?
Its Ki is 59 nM.

For ACPLVNPLCMMGGWKCA (linker 2-9-16 via TATA; not fully specified (C-terminus)) [Compound 62], which Ki is on record?
Its Ki is 67.1 nM.

Which Ki does the source give for ACPLVNPLCMIGNWTCA (linker 2-9-16 via TATA; not fully specified (C-terminus)) [Compound 60] here?
Its Ki is 96.2 nM.

With ACGFMGLEPCELYCAHT (linker 2-10-14 via TATA; not fully specified (C-terminus)) [Compound 49] as the binder, how does the Ki read?
Its Ki is 144 nM.

With ACGFMGLVPCEVHCA (linker 2-10-14 via TATA; not fully specified (C-terminus)) [Compound 41] as the binder, how does the Ki read?
The Ki was 155 nM.

How did the Ki turn out when ACGFMGLVPCNVFCA (linker 2-10-14 via TATA; not fully specified (C-terminus)) [Compound 45] was run?
The Ki was 142 nM.

ACGFMGLVPCELYCADN (linker 2-10-14 via TATA; not fully specified (C-terminus)) [Compound 51] was tested. Which Ki did it give?
Its Ki is 84.4 nM.

Which Ki does the source give for ACSSCWAYPDSVCA (linker 2-5-13 via TATA; not fully specified (C-terminus)) [Compound 38] here?
Its Ki is 400 nM.

Which Ki does the source give for ACRNWGMYCAYPDTICA (linker 2-9-16 via TATA; not fully specified (C-terminus)) [Compound 35] here?
Its Ki is 282 nM.

With ACPLVNPLCLHPGWTCLHG (N-terminal (β-Ala)-Sar10; TATA scaffold on the 3 Cys) [Compound 75] as the binder, how does the Ki read?
Its Ki is 2.48 nM.

How did the Ki turn out when ETVCLPDSRCAYMNVCA (linker 4-10-16 via TATA; not fully specified (C-terminus)) [Compound 23] was run?
Its Ki is 130 nM.

ESRCSPDARCAYMNVCA (linker 4-10-16 via TATA) [Compound 20] was tested. Which Ki did it give?
Its Ki is 57 nM.

How did the Ki turn out when ACPDWGKYCAYPDTICA (linker 2-9-16 via TATA; not fully specified (C-terminus)) [Compound 36] was run?
Its Ki is 160 nM.

How did the Ki turn out when ACRGEWGYCAYPDTICA (linker 2-9-16 via TATA; not fully specified (C-terminus)) [Compound 34] was run?
Its Ki is 348 nM.

With ACVPDRRCAFRDVCLTG (linker 2-8-14 via TATA; not fully specified (C-terminus)) [Compound 28] as the binder, how does the Ki read?
The Ki was 1700 nM.

The binders below were run against T1, Human EphA2 (Ecto), C-terminal polyHis (assay: FP competition vs Reference Compound C (Study 2)).

Which Ki does the source give for B3 here?
The Ki was 15.2 nM.

With B4 as the binder, how does the Ki read?
The Ki was 2.8 nM.

With B5 as the binder, how does the Ki read?
Its Ki is 18.6 nM.

With B6 as the binder, how does the Ki read?
The Ki was 15.8 nM.

With B7 as the binder, how does the Ki read?
The Ki was 7.3 nM.
